Source: patent US20120039915A1

Molecular target: antigen bound by the GC4 antibody on GBM tumor sphere cells (target antigen not determined)
Assay: FACS on GBM tumor sphere cells at RT, MFI fitted (apparent dissociation constant)

B1: recombinant human GC4 IgG1 (antibody, V domains shown)
VH: QVQLVESGGGLVQPGGSLRLSCAASGFTFGTYDMSWVRQAPGKGLEWVSGISGSGGSTYYADSVKGRFTISRDNSKNTVYLQMNSLRVEDTAVYYCARGGWYSDNWGQGTLVTVSS
VL: SELTQDPAVSVALGQTVRITCQGGSLRSYYASWYQQKPGQAPLLVIYGENNRPSGIPDRFSGSSSGNTASLTITGAQAEDEADYYCHSRDSSGNHVVFGGGTKLTV
B1 showed a Kd of 79.7 nM.
